According to the supplement of paper PMC10567573:

B1: TNNI2 (parent)
chain: DWRKNIEEKSGMEGRKKMFESES
B2: TRIM29 (parent)
chain: RKCPVHGKTMELFCQTDQTCICYL

Variants of: B1
Assay: protein stability index of a GFP-peptide fusion (GPS, HEK-293T) (PSI 1-6); higher = more stable
Settings: c terminus: native
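Further: lentivirally expressed fusions sorted by FACS into six bins by GFP to DsRed ratio, PSI derived from sequencing read proportions per bin multiplied by bin number.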

Protein stability index of substitutions, site by site:
S23: H 2.87, C 1.53, R 2.15, K 2.63, I 1.59, T 1.42, P 2.42, G 3.42, F 3.02, N 4.46, Y 2.59
E20: Y 3.81
S21: Y 4.05, F 4.49, W 3.35, E 5.2, C 3.19, D 5.47, M 3.92, V 2.39, P 1.37, R 3.41, N 3.39, L 3.92, H 2.9, K 3.49, Q 4.96, A 1.5, T 4.47
E22: S 5.13, T 5.25, C 3.71, M 3.29, I 3.3, D 3.81, F 4.22, L 3.17, H 4, Y 3.84, G 5.04, V 3.77, W 3.86, K 4.67, P 2.06, N 4.44, Q 4.33, R 1.58

Variants of: B2
Assay: as above
Settings: c terminus: a fixed tail appended

Protein stability index: each site, then its substitutions
G7: F 2.55, Q 3.09, E 2.6, C 2.5, M 2.35, A 2.25, S 2.57, K 1.63, H 2.38, L 2.26, D 3.12, T 2.46, P 2.46, V 2.04, I 3.48, N 3.49, W 1.4
V5: M 2.58, E 1.79, D 3.62, C 3.08, H 3.76, R 2.42, Q 1.59, K 2.3, P 2.87, L 1.92, W 2.52, I 2.79, A 1.72, G 3.21, T 2.46, Y 2.71, S 3.1, N 4.09
C3: F 2.35, A 3.58, Q 2.64, L 2.3, K 1.89, W 2.72, R 2.12, S 2.54, G 2.1, P 1.97, Y 1.9, E 2.52, T 3.1, D 2.13, H 2.27, V 1.86, I 3.19, N 2.92
K2: L 2.36, P 3.02, G 2.57, C 1.82, N 2.68, W 2.91, M 2.17, V 2.02, R 1.69, Q 2.12, I 1.94, A 2.54, H 2.15, F 2.36, D 2.15, T 1.7, S 2.27, E 1.65, Y 1.8
R1: Q 1.91, H 3, F 1.95, T 2.32, G 3.33, P 2.66, I 1.65, V 2.98, S 2.19, E 1.71, N 2.84, L 3.04, Y 2.48, D 1.67, C 2.39, W 2.46, M 1.95, K 2.22, A 2.68
P4: F 3.42, V 2.21, Q 1.95, L 3.39, N 3.09, C 4.04, T 2.25, W 2.91, R 3.52, D 2.63, Y 2.12, A 2.54, K 2.58, E 3.3, I 2.52, S 2.41
H6: D 3.05, W 1.96, I 2.37, L 2.85, V 2.44, F 2.31, R 4.01, C 1.62, K 2.29, N 3.27, A 2.38, G 2.4, P 1.98
